Measured values taken from paper PMC9581579 (2022).

Columns and labels:
[1] = target: T1, His-Avi-Trx-Frmpd1-pept (Frmpd1 residues 895–938) (UniProt A2AKB4 895-938, not fully specified; biotin (biotinylated in E. coli by native BirA ligase)); assay: BLI
T1 chain: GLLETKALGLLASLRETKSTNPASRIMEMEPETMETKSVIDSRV

[2] = target: T1, His-Avi-Trx-Frmpd1-pept (Frmpd1 …); assay: BLI; in the presence of Gαt*

B1: HMT-Gpsm2 (His6-MBP-TEV site-Gpsm2) (natural protein)
chain: MEENLISMREDHSFHVRYRMEASCLELALEGERLCKSGDCRAGVSFFEAAVQVGTEDLKTLSAIYSQLGNAYFYLHDYAKALEYHHHDLTLARTIGDQLGEAKASGNLGNTLKVLGNFDEAIVCCQRHLDISRELNDKVGEARALYNLGNVYHAKGKSFGCPGPQDVGEFPEEVRDALQAAVDFYEENLSLVTALGDRAAQGRAFGNLGNTHYLLGNFRDAVIAHEQRLLIAKEFGDKAAERRAYSNLGNAYIFLGEFETASEYYKKTLLLARQLKDRAVEAQSCYSLGNTYTLLQDYEKAIDYHLKHLAIAQELNDRIGEGRACWSLGNAYTALGNHDQAMHFAEKHLEISREVGDKSGELTARLNLSDLQMVLGLSYSTNNSIMSENTEIDSSLNGVRPKLGRRHSMENMELMKLTPEKVQNWNSEILAKQKPLIAKPSAKLLFVNRLKGKKYKTNSSTKVLQDASNSIDHRIPNSQRKISADTIGDEGFFDLLSRFQSNRMDDQRCCLQEKNCHTASTTTSSTPPKMMLKTSSVPVVSPNTDEFLDLLASSQSRRLDDQRASFSNLPGLRLTQNSQSVLSHLMTNDNKEADEDFFDILVKCQGSRLDDQRCAPPPATTKGPTVPDEDFFSLILRSQGKRMDEQRVLLQRDQNRDTDFGLKDFLQNNALLEFKNSGKKSADH
In the case of B1, the Kd [1] is reported as 286 nM and the Kd [2] is reported as 198 nM.
